Assay results as given in patent publication US20220289855A1 (University of California, published 2022).

Molecular target: T1, integrin α4β1 (mouse, UniProt Q00651 41-1039; P09055 21-798)
T1 construct: whole, on cells
Experiment: flow cytometry, soluble ligand on mouse Tregs
Experimental: Splenic lymphocytes were isolated from Foxp3^GFP mice and were washed and resuspended in HBSS containing 0.1% BSA and 1 mM Ca²⁺/Mg²⁺, prior to incubation with integrin ligands for […] at 37° C. in the presence of IL-2 (10 ug/ml), rat-PC61 (5 ug/ml, Bioxcell), rat-rIgG (5 ug/ml, Bioxcell), murine-PC61 (5 ug/ml) and murine-IgG (5 ug/ml, Bioxcell). Cells were then incubated with AlexFluor647-conjugated anti-human IgG (1:200) for […] at 4° C. Then cells were washed twice before flow cytometry analysis using an Accuri C6 Plus (BD Biosciences). Data were analyzed using FlowJo software.

T1 sequence (Q00651 41-1039, chain 1 of 2): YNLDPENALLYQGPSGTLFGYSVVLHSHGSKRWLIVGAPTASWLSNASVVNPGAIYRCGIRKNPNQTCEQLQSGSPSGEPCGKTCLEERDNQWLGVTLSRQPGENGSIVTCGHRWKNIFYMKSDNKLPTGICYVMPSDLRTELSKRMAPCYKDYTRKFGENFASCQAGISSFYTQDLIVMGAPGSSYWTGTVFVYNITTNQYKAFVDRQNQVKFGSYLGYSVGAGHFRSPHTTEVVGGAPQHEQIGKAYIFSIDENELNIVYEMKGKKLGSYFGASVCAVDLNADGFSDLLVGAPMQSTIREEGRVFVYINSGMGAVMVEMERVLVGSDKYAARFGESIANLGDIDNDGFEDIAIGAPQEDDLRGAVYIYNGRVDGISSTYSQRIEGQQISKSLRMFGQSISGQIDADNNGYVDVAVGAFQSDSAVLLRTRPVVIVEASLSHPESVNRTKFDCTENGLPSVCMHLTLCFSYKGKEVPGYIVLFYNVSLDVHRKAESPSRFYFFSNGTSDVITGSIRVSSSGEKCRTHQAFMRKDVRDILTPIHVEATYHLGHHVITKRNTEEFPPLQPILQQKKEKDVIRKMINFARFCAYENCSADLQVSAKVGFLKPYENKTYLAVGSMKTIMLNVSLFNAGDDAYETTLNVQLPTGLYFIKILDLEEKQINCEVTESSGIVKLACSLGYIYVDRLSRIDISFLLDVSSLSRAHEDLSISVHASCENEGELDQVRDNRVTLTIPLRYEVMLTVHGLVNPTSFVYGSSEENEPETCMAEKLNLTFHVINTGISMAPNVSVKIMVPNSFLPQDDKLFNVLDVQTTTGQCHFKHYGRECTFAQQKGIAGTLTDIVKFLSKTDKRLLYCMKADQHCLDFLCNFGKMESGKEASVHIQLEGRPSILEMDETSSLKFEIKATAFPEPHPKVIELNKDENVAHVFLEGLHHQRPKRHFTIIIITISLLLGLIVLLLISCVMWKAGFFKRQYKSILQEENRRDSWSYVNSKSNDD
T1 sequence (P09055 21-798, chain 2 of 2): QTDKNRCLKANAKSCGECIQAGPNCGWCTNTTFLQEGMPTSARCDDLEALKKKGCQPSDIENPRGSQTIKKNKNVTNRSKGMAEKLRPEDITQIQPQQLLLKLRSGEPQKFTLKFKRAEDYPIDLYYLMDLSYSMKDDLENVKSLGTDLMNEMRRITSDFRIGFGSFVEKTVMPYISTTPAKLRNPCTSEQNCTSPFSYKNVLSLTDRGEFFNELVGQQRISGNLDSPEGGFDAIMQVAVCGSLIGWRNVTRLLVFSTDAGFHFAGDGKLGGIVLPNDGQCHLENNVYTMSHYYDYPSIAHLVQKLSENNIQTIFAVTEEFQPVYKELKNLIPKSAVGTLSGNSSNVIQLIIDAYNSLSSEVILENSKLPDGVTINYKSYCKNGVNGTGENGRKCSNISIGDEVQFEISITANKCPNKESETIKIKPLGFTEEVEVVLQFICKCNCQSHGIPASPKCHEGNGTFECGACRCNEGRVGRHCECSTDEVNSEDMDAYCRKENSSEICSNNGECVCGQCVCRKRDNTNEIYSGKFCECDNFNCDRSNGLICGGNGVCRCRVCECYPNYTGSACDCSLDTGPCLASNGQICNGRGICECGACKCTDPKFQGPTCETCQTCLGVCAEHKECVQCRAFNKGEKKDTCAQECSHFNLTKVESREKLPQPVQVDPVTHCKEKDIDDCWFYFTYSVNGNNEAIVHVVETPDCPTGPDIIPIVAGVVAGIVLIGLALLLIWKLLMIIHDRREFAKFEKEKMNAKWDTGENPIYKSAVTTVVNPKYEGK

B1: purified mouse VCAM-Fc (Fc fusion, UniProt P29533 25-698, looked up)
chain: FKIEISPEYKTIAQIGDSMALTCSTTGCESPLFSWRTQIDSPLNAKVRTEGSKSVLTMEPVSFENEHSYLCTATCGSGKLERSIHVDIYSFPKDPEIQFSGPLEVGKPVTVKCLAPDIYPVYRLEIDLFKGDQLMNRQEFSSEEMTKSLETKSLEVTFTPVIEDIGKALVCRAKLHIDQIDSTLKERETVKELQVYISPRNTTISVHPSTRLQEGGAVTMTCSSEGLPAPEIFWGRKLDNEVLQLLSGNATLTLIAMRMEDSGVYVCEGVNLIGRDKAEVELVVQEKPFIVDISPGSQVAAQVGDSVVLTCAAIGCDSPSFSWRTQTDSPLNGVVRNEGAKSTLVLSSVGFEDEHSYLCAVTCLQRTLEKRTQVEVYSFPEDPVIKMSGPLVHGRPVTVNCTVPNVYPFDHLEIELLKGETTLMKKYFLEEMGIKSLETKILETTFIPTIEDTGKSLVCLARLHSGEMESEPKQRQSVQPLYVNVAPKETTIWVSPSPILEEGSPVNLTCSSDGIPAPKILWSRQLNNGELQPLSENTTLTFMSTKRDDSGIYVCEGINEAGISRKSVELIIQVSPKDIQLTVFPSKSVKEGDTVIISCTCGNVPETWIILKKKAKTGDMVLKSVDGSYTIRQAQLQDAGIYECESKTEVGSQLRSLTLDVKGKEHNKDYFSPE
notes: also called VCAM-1; soluble VCAM-1; not shown: Fc part, detected with anti-Human Fc
binding result: binds
